Earlier results as cited in patent US5925739A, “Pharmaceutical formulation for subcutaneous intramuscular or intradermal administration of factor VIII” (Pharmacia & Upjohn AB, priority 1994, dated 1999).

Conditions: hemophilia B patients, injected into subcutaneous tissue

human factor IX: coagulation factor IX, molecular mass of about 56 kDa
transport into the circulation: poorly and very slowly transported into the circulation
